For the data set, the system named is NC(C(=O)O)C(O)c1ccccc1. Kind of data set: purified protein. The conditions noted are these: pH 7.8; 40.0 °C.

For one substance, Km and kcat/Km results are on record in article PMC4260256, “A novel serine hydroxymethyltransferase from Arthrobacter nicotianae: characterization and improving catalytic efficiency by rational design” (BMC Biotechnology, 2014).

For AnSHMT (Glutamicibacter nicotianae), the Km turned out to be 57.86 ± 0.07 mM and the kcat/Km is 27.7 M⁻¹ s⁻¹.

The term Km denotes the concentration of substrate that gives half-maximal velocity. By kcat/Km is commonly meant the second-order rate constant that governs catalysis at low substrate concentration.
